These are literature values, as cited in PMC6503043.

Read-outs that look alike come from different tables or passages of the source.

Data set [1] deals with CD28 (Homo sapiens) (UniProt P10747).
The target is the same in data set [2]. This is another data set of the same source.

As usually defined, the Kd is the free concentration of one partner at which half of the binding sites on the other are occupied at equilibrium, for simple one-to-one binding. On to B7-1 (from UniProt P33681), for which the Kd with CD28 (Homo sapiens) [1] is 5 µM. For the substance B7-2 (from UniProt P42081), the Kd with CD28 (Homo sapiens) [2] is 20 µM.
